Data: article doi:10.1101/2023.02.09.527830

Target: Lassa virus nucleoprotein NP (WT) (Lassa virus (AV strain), UniProt Q9DQX7)
Test: native MS

Does UAGGAAUCU (ssRNA) [9 nt RNA] bind?
Result: binds

Does ACACAAAGACCC (ssRNA) [12 nt RNA] bind?
Result: binds
